The values that follow come from PMC7495481, “Sequence specificity analysis of the SETD2 protein lysine methyltransferase and discovery of a SETD2 super-substrate” (Communications Biology, 2020).

Ends that are not written are not given here.

In assay [1] the target is T1, SETD2 (Homo sapiens, UniProt Q9BYW2).
T1 construct: SETD2 catalytic SET domain (amino acids 1347–1711, UniProt No: Q9BYW2); made in house; host or cells: E. coli
T1 sequence (Q9BYW2 1347-1711): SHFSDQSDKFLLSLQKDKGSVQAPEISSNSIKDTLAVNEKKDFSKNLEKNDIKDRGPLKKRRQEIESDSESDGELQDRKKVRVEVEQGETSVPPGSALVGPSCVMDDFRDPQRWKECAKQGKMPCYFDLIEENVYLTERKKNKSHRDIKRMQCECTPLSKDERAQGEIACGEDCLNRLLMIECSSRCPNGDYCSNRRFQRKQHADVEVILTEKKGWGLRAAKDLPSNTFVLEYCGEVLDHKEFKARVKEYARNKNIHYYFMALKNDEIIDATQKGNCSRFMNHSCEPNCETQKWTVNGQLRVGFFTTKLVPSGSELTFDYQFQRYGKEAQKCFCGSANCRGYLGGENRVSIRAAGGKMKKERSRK
To be noted: H3K36 peptide, previously determined under the same conditions; ref [30]; cited from earlier work.

For assay [2], the target named is T1, SETD2. As to the kind of experiment: Protein methylation assay (non-histone proteins, GST fusions, nucleosomes, H3.1). It counts as biochemical. To be noted: equal amounts; 6 µM SETD2, 0.76 µM AdoMet, 3 h, 25 °C; autoradiography. The text has this: The 9 new putative non-histone substrates of SETD2 were cloned into a pGEX-6p2 bacterial expression vector for protein expression. Six of them could be expressed and purified through glutathione sepharose beads (Table 1). For comparison, the super-substrate sequence was cloned with a […] GST-tag (ssK36-GST) to mimic the natural setting of the H3K36 site in the N-terminal tail of histone 3. Similar amounts of the purified non-histone substrate proteins and the ssK36-GST protein were loaded on an SDS-gel and stained with Coomassie BB (Supplementary Fig. 6a). Afterward protein methylation reactions were conducted using radioactively labeled AdoMet and the radioactive signal of the methyl group transfer was detected by autoradiography (Supplementary Fig. 6b). […] Next, we aimed to confirm the FBN1 methylation at the predicated target lysine K666. For this, a K666R mutation was introduced and the wildtype and mutant FBN1 proteins were purified by affinity chromatography. […]
Protein methylation reactions were performed in 40 µl methylation buffer containing 0.76 µM radioactive labeled AdoMet (PerkinElmer), approximately 20 µg of substrate protein and 6 µM SETD2 enzyme (if not otherwise indicated) for 3 h at 25 °C. […] The radioactive methylation signal was detected by a hyperfilm^TM high performance autoradiography film (GE Healthcare) at −80 °C in the dark. […]

For assay [3], the target named is T1, SETD2. The assay is described as follows: Western Blot detection of GST fusion methylation by SETD2 with H3K36me3 antibody. It is filed as biochemical. To be noted: incubated with SETD2 and unlabeled AdoMet. The method, then:
Supplementary Fig. 9: Control experiments related to Fig. 6c. a Validation of the detection of ssK36-GST methylation by the α-H3K36me3 antibody. The purified ssK36-GST and H3K36-GST substrates were incubated with SETD2 and unlabeled AdoMet. Afterwards, the proteins were separated by SDS-PAGE and blotted. Western Blot […]
of H3K36-GST methylation by SETD2 observed in Fig. 6a and 6b. Equal loading of the GST-tagged proteins is shown in the Coomassie BB stain of a parallel gel, equal loading of SETD2 is shown in the Ponceau S stain of the Western Blot membrane. b YFP-tagged ssK36 and H3K36 substrates were transfected into HEK293 cells together with DsRed-tagged SETD2 or DsRed empty vector (EV). The expression levels of DsRed-SETD2 and DsRed from EV were determined […]
Example of the FACS primary data for DsRed expression. d Average fraction of DsRed positive cells in three independent experiments normalized to DsRed-SETD2 + YFP-ssK36. EV, empty […]
(1 picture or pasted object on this page, not shown here)

The target in assay [4] is T1, SETD2. To be noted: ref [18],[19]; cited from earlier work. The text has this:
SETD2 is a PKMT initially in 2005 identified to methylate H3K36[8]. So far, lysine 36 in H3 was still the best substrate known for this enzyme at the peptide level. At the protein level, H3 methylation by SETD2 is weak, but it is strongly stimulated in the context of a nucleosome as shown here by us and previously by others. […] In thi ...

Assay [5] addresses T1, SETD2. As to the kind of experiment: Peptide SPOT array methylation of reported SETD2 substrates. It is filed as biochemical. Conditions: SPOT array on cellulose membrane; 0.76 µM radioactive AdoMet, 3–6 µM SETD2, 60 min, pH 9; autoradiography. Here is the method:
Next, the SETD2 activity was tested on peptide SPOT arrays containing fifteen amino acid long peptides immobilized on a cellulose membrane. As reported SETD2 substrates, the H3K36 (29–43), α -tubulin (33–47) and STAT1 (518–532) peptides (with the target lysine centered in each case) were included, and peptides with the corresponding target lysine mutated to alanine were used as negative controls. The peptide array was incubated in methylation buffer supplemented with SETD2 and radioactively labeled AdoMet. […] Methylation of the previously reported non-histone substrates α -tubulin and STAT1 was not detectable at the peptide level and, therefore, they were excluded from further investigation.
Peptide arrays containing fifteen amino acid long peptides were synthesized using the SPOT synthesis method[48] with an Autospot peptide array synthesizer (Intavis AG, Köln, Germany). After synthesis, the obtained membranes were pre-incubated in methylation buffer (20 mM Tris/HCl pH 9, 0.01% Triton X-100, 10 mM DTT, 1.5 mM MgCl2) for 5 min on a shaker. Thereafter, the membranes were incubated in methylation buffer supplemented with 0.76 µM radioactively labeled AdoMet (PerkinElmer) and 3–6 µM SETD2 enzyme for 60 min on a shaker. After methylation, the membranes were washed 5 times for 5 min in wash buffer (100 mM NH4HCO3, 1% SDS) and incubated in amplify NAMP100V (GE Healthcare) for 5 min. This was followed by the exposure of the membranes to a hyperfilm^TM high performance autoradiography (GE Healthcare) film at −80 °C in the dark. The films were developed with an Optimax Typ TR machine after different exposue times. For quantification the signal intensities were measured with the Phoretix^TM software and analyzed with Microsoft Excel.
Supplementary Fig. 1: SETD2 protein and catalytic activity. a Purified His6-tagged SETD2 SET domain (1347-1711) was separated on an SDS-gel and […]
stained with Coomassie BB. […]
tubulin (33-47), STAT1 (518-532) and their corresponding target lysine to alanine mutant peptides were synthesized on a cellulose membrane. The membrane was incubated in methylation buffer supplemented with radioactively labeled AdoMet and SETD2. The signal of the transferred radioactive methyl groups was visualized by autoradiography.

Consider “H3K36 peptide: H3K36 (27–43) peptide purchased from Intavis AG (KSAPATGGVKKPHRYRP; UniProt P68431 28-44, looked up, fragment)”, for which the Km (as a rule, the substrate concentration at which the rate is half of its maximum) in the assay with SETD2 [1] was 65 µM.

As for “H3K36-GST: H3K36 (29–43) sequence cloned with C-terminal GST-tag (APATGGVKKPHRYRP; also: C-terminal GST tag fusion; UniProt P68431 30-44, looked up, fragment)”, the “methylation of GST fusion proteins (in words)” value with SETD2 [2] is “no signal was detected”. The “H3K36me3 antibody Western Blot signal” value in the assay with SETD2 [3] is listed as “very weak signal”.

B1: STAT1: known non-histone substrate of SETD2, methylated at K525 (protein, UniProt P42224 2-750, looked up)
Signal transducer and …: SQWYELQQLDSKFLEQVHQLYDDSFPMEIRQYLAQWLEKQDWEHAANDVSFATIRFHDLLSQLDDQYSRFSLENNFLLQHNIRKSKRNLQDNFQEDPIQMSMIIYSCLKEERKILENAQRFNQAQSGNIQSTVMLDKQKELDSKVRNVKDKVMCIEHEIKSLEDLQDEYDFKCKTLQNREHETNGVAKSDQKQEQLLLKKMYLMLDNKRKEVVHKIIELLNVTELTQNALINDELVEWKRRQQSACIGGPPNACLDQLQNWFTIVAESLQQVRQQLKKLEELEQKYTYEHDPITKNKQVLWDRTFSLFQQLIQSSFVVERQPCMPTHPQRPLVLKTGVQFTVKLRLLVKLQELNYNLKVKVLFDKDVNERNTVKGFRKFNILGTHTKVMNMEESTNGSLAAEFRHLQLKEQKNAGTRTNEGPLIVTEELHSLSFETQLCQPGLVIDLETTSLPVVVISNVSQLPSGWASILWYNMLVAEPRNLSFFLTPPCARWAQLSEVLSWQFSSVTKRGLNVDQLNMLGEKLLGPNASPDGLIPWTRFCKENINDKNFPFWLWIESILELIKKHLLPLWNDGCIMGFISKERERALLKDQQPGTFLLRFSESSREGAITFTWVERSQNGGEPDFHAVEPYTKKELSAVTFPDIIRNYKVMAAENIPENPLKYLYPNIDKDHAFGKYYSRPKEAPEPMELDGPKGTGYIKTELISVSEVHPSRLQTTDNLLPMSPEEFDEVSRIVGSVEFDSMMNTV
As for B1, the “reported methylation by SETD2 compared with H3K36” value in the assay with SETD2 [4] is given as “weaker than H3K36”. The “peptide spot methylation signal” value with SETD2 [5] is reported as “did not show a detectable peptide methylation signal”.
